The text below walks through data of patent US20260274993A1.

The target in assay [1] is VH4-34 endogenously expressed by cell line GA-10. The experiment in a line: flow cytometry, EC50 of % parent (APC), GA-10 cells endogenously expressing VH4-34; curve in FIG. 5A rises to about 66 % at Log M about -7.2 without a plateau.
The target in assay [2] is VH4-34 endogenously expressed by cell line HBL-1. The experiment in a line: flow cytometry, EC50 of % parent (APC), HBL-1 cells endogenously expressing VH4-34; curve in FIG. 5A rises to about 57 % at Log M about -7.2 without a plateau. (In flow cytometry, cells or beads pass a laser one at a time.)

B1: D011-1E11-5T2.IgG2a (antibody, V domains shown)
VH: QVQLVQSGAEVKKPGASMKVSCKASGYSFTGSTMNWVRQAPGQGLEWMGWINPYNGGTNYAQKFQGRVTMTRDTSISTAYMELSRLRSDDTAVYYCASRGKNGYDGRDFDCWGQGTLVTVSS
VL: EIVLTQSPATLSLSPGERATLSCKSTKSLLNSGGFSYLDWYQQKPGQAPRLLIYLVSNRFTGIPARFSGSGSGTDFTLTISSLEPEDFAVYYCFQSNYFPFTFGQGTKLEIKR
For orientation: EC50 means the concentration needed to bring the measured effect to its halfway point. In the case of B1, the concentration giving a half-maximal response (EC50) in assay [1] is 1.52 nM; in assay [2], 240 nM.
